From patent US20230212268A1 (UNM RAINFOREST INNOVATIONS, published 2023)
“And” between values parts separate entries of the source, which are not always exact repeats. Equal values may be shown once.

Key:
[1] = biological target: T1, recombinant EBOV glycoprotein (EBOV (Zaire ebolavirus), UniProt Q05320 33-650); test: ELISA dose response, GP coated
T1 sequence: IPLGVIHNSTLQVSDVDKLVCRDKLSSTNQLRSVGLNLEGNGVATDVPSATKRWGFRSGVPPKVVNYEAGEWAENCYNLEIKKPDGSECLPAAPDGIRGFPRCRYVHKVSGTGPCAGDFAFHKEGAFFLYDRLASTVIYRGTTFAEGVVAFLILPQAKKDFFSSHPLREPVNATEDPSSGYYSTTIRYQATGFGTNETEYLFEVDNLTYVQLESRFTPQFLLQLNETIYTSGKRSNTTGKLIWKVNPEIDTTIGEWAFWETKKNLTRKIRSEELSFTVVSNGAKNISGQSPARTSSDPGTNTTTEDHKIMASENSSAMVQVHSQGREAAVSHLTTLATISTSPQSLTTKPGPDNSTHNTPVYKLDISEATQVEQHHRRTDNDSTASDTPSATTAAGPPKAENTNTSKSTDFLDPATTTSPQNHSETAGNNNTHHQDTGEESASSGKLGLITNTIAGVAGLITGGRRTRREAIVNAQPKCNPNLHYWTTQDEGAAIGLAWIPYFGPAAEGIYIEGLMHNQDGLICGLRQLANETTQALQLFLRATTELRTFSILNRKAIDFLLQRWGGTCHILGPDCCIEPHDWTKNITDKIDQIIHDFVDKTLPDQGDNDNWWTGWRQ

[2] = biological target: T2, recombinant SUDV glycoprotein (SUDV (Sudan ebolavirus), UniProt Q7T9D9 33-650); test: ELISA dose response, GP coated
T2 sequence: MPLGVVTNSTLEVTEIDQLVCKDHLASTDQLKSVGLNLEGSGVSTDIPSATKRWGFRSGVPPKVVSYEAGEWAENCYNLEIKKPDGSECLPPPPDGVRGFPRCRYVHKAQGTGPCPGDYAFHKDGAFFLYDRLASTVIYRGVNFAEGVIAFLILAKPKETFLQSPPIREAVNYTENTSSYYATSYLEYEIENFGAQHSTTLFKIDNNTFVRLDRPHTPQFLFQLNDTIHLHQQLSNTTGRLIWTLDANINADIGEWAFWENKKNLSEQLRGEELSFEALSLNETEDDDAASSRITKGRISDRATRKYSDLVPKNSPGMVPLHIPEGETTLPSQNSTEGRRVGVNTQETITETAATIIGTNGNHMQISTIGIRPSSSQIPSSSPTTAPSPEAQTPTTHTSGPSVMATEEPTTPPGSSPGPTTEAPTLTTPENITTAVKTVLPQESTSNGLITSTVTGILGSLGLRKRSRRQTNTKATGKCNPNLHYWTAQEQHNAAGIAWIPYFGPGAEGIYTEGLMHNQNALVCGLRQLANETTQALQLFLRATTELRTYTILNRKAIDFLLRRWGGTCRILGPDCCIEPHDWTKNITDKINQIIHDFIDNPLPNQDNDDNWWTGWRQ

[3] = biological target: recombinant BDBV glycoprotein (BDBV (Bundibugyo ebolavirus)); test: maximal binding from ELISA dose-response fit

B1: EbovGPscFv4-2 (scFv)
scFv: MAWSHPQFEKTGSGGAELVKSGASVKLSCTASGFNIKDDYMHWVKQRPEQGLEWIGWIDPENGDTEYASKFQGKATITADTSSNTAYLQLSSLTSEDTAVYYCTTYYYGSAWFAYWGQGTLVTVSAGGGGSGGGGSGGGGSGGGGSASLSVSVGETVTITCRASGNIHNYLAWYQQKQGKSPQLLVYNAKTLADGVPSRFSGSGSGTQYSLKINNLQPEDFGSYYCQHFWSTPYTFGGGTKLEIKRADAAPTVSIFPPSSEQLTSGGASVVCFLNNFTHCQELQQDECS
With B1 the EC50 [1] was 4.09 µg/mL and < 9 µg/mL, the EC50 [2] was 5.3 µg/mL and < 9 µg/mL and the Bmax signal (relative absorbance units) [3] was 220000.
